The results in this text go back to US10801046B2, “Methods and materials for biosynthesizing multifunctional, multivariate molecules via carbon chain modification” (INVISTA NORTH AMERICA S.A.R.L., priority 2016, dated 2020).

This assay is described as follows: Esterase activity assay, monomethyl heptanedioate to heptanedioic acid, LC-MS. The assay is classed as biochemical. As to conditions: esterase assays. The procedure: A nucleotide sequence encoding a C-terminal His-tag may be added to the gene from Bacillus subtilis encoding the esterase of SEQ ID NO: 50 (NCBI Reference Sequence: NP_388108.1) such that a C-terminal HIS tagged esterase is produced. The resulting modified gene is cloned into a pET28b+ expression vector under control of the T7 promoter and the expression vector is transformed into a BL21[DE3] E. coli host. The resulting recombinant E. coli strain can be cultivated at 37° C. in a 500 mL shake flask culture containing 100 mL LB media and antibiotic selection pressure, with shaking at 230 rpm. Each culture is induced overnight at 18° C. using 0.3 mM IPTG.
The pellet from each induced shake flask culture can be harvested via centrifugation. Each pellet is resuspended and lysed via sonication. The cell debris is separated from the supernatant via centrifugation. The esterase can be purified from the supernatant using Ni-affinity chromatography, buffer exchanged and concentrated into 20 mM HEPES buffer (pH=7.5) via ultrafiltration and stored at 4° C.
Enzyme activity assays converting monomethyl heptanedioate to heptanedioic acid are performed in triplicate in a buffer composed of a final concentration of 25 mM Tris-HCl buffer (pH=7.0) and 5 [mM] monomethyl heptanedioic acid. […] The formation of heptanedioic acid can be quantified via LC-MS.

B1: esterase from Streptomyces diastatochromogenes: estA from Streptomyces diastatochromogenes classified under EC 3.1.1.1 (protein)
chain: MARFRTRLALLGSAAALAAGAVVPAQLAGAQPAAAAADLQWVALGDSYTAGVIRAAGDAIDYPRDGCERTDRSYPQVIERDLYGLFDLTNVSCGAATIENVSDTPQYPIGRHMPPFSEDPDHPFPPVPPQSEAVGPGTDVITVGVGGNTLGFADILTKCQELGGESGGEGTPCKGALGSGIKARLDKVSQGYDRMLTVLHERGPKAKILTVGYPTVIPENTADCGYGDLTKFGTITQGDLAWLRQDVLEPLNKTIEDSAATQEAADFVNLYAPSQGHSVCDADKWVEGILTVSPNQDPQLSFVHPNASGHRNAADHVEEAMLNAIS
modifications: Streptomyces diastatochromogenes
With B1, the “methyl ester hydrolysis of a C7 compound” value is “affected the methyl ester hydrolysis of a C7 compound”.
